According to paper PMC3654694 (Immunity, 2012):
Substitutions are numbered along the chain they refer to. Names may count otherwise. Where two headings read alike, the source gives them in different places.

How the values were obtained:
[1] = biological target: the molecule itself
[2] = biological target: T1, STING CTD (STINGΔ1-138, AA139-379), His-tag removed (human), Q86WV6; assay: AUC; details: remark: other sources report otherwise
T1 chain: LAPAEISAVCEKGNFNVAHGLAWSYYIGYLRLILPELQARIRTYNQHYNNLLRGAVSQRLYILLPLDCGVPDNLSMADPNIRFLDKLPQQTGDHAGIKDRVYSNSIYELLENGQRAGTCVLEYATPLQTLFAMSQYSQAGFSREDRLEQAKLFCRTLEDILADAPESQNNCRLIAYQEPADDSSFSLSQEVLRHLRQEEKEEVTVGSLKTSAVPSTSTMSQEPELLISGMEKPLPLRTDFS

[3] = biological target: the molecule itself; assay: SEC
[4] = biological target: T2, STING CTD WT (AA139-379) with His-tag (human), Q86WV6; assay: SEC; details: remark: other sources report otherwise
T2 chain: T1 chain

B1: STINGΔ1-148 (AA149-379) (domain or fragment, human, UniProt Q86WV6 149-379, looked up)
chain: EKGNFNVAHGLAWSYYIGYLRLILPELQARIRTYNQHYNNLLRGAVSQRLYILLPLDCGVPDNLSMADPNIRFLDKLPQQTGDHAGIKDRVYSNSIYELLENGQRAGTCVLEYATPLQTLFAMSQYSQAGFSREDRLEQAKLFCRTLEDILADAPESQNNCRLIAYQEPADDSSFSLSQEVLRHLRQEEKEEVTVGSLKTSAVPSTSTMSQEPELLISGMEKPLPLRTDFS
- stoichiometry N [1]: 2

B2: STING CTD (STINGΔ1-138, AA139-379), His-tag removed, Q86WV6 139-379 (domain or fragment)
chain: T1 chain
- stoichiometry N [2]: 2

B3: STING CTD K150L (domain or fragment, human, UniProt Q86WV6 139-379, looked up)
chain: T1 chain with K12L
- stoichiometry N [3]: 2

B4: STING CTD K150A (domain or fragment, human, UniProt Q86WV6 139-379, looked up)
chain: T1 chain with K12A
- stoichiometry N [3]: 2

B5: STING CTD K150R (domain or fragment, human, UniProt Q86WV6 139-379, looked up)
chain: T1 chain with K12R
- stoichiometry N [3]: 2

B6: STING CTD WT (AA139-379) with His-tag, Q86WV6 139-379 (domain or fragment)
chain: T1 chain
- stoichiometry N [4]: 2
